Laboratory results: IntAct's records for PubMed 26455799

B1: ADP-ribosylation factor-like protein 2 (Mus musculus), Q9D0J4 (parent)
chain: MGLLTILKKMKQKERELRLLMLGLDNAGKTTILKKFNGEDVDTISPTLGFNIKTLEHRGFKLNIWDVGGQKSLRSYWRNYFESTDGLIWVVDSADRQRMQDCQRELQSLLVEERLAGATLLIFANKQDLPGALSCNAIQEALELDSIRSHHWRIQGCSAVTGEDLLPGIDWLLDDISSRVFTAD
B2: Cilia- and flagella-associated protein 36 (Mus musculus), Q8C6E0 (parent)
chain: MAAEEEDEVEWVVESIAGFLRGPDWSIPILDFVEQKCEVFDDEEESKLTYTEIHQEYKELVEKLLESYLKEIGINEDQFQEACTSPLAKTRTSQAILQPVLAAEDFTIFKAMMVQKNIEMQLQAIRIIQERNGVLPDCLTDGADVVSDLEQEEMKILREVLRKSKEEYDQEEERKRKKQSSEAKMEELPVYTSEAEKMSNSQGDGEHFVQPPSEVKVHFANQSVQPLARKMELLPETSSLTQKGLKIPGLEHASMEGPIANLSALGTEELRQREHYLKQKRDKLLSMRKDTRTKQIQNTEQKGKPTREAEEMTEKPEMTAEEKQTLLKRRLLAEKLKEEVINK

Variants of: B1
Conditions: with cfa36_mouse Cfap36, Q8C6E0

Row | effect of a mutation on the interaction | Variant
1 | decreasing interaction strength | F50A
2 | decreasing interaction strength | L4D

Variants of: B2
Conditions: with arl3_mouse Arl3, Q9WUL7
Chain of arl3_mouse Arl3, Q9WUL7 (Q9WUL7 whole entry): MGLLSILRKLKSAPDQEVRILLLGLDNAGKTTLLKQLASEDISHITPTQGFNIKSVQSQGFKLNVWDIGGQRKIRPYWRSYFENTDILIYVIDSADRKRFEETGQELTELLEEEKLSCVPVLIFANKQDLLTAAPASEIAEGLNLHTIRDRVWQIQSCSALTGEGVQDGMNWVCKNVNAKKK

Row | Variant | effect of a mutation on the interaction
3 | E44R;L48R | decreasing interaction strength
4 | E44R;E45R | decreasing interaction strength

Continued, values first:

Row | effect of a mutation on the interaction | Variant
5 | decreasing interaction strength | L65D;C83R
6 | decreasing interaction strength | L65D;C83R;V100H
